For assay [1], the target named is 125I-radiolabeled IGF-I. Briefly: dot blot of serial dilutions of crude soluble fractions probed with 125I-IGF-I; tells of the amount of active protein, not of affinity.
Assay [2] has as its target insulin substrate.
In assay [3] the target is native dsbA (with leader)-biotinylation peptide (pDM25453) (E. coli) (UniProt P0AEG4).

Bounds are passed on as bounds.

Regarding “DsbA-ubiquitin-IGFBP-3 fusion (pDM15427) (from UniProt P0AEG4)”, in assay [1], the fold increase in the recovery of bioactive IGFBP-3 (IGF-I binding activity of the crude extract, against the ubiquitin-IGFBP-3 fusion) worked out at 16 fold. In turn, “E. coli DsbA expressed with its leader sequence (pYZ9205) (from UniProt P0AEG4) (enzyme)” had an Oxidoreductase Activity of DsbA, Activity (U/min-mg), TEX fraction in assay [2] of 0.089 U/min-mg. Turning to “E. coli biotin holoenzyme synthetase (from UniProt P06709)”, the efficiency of in vivo biotinylation of the Ni-NTA purified proteins of pDM25450 and pDM25453 in assay [3] was less than 10 fold.

In turn, “leaderless E. coli DsbA (pYZ9206) (from UniProt P0AEG4) (enzyme)” returned an Oxidoreductase Activity of DsbA, Activity (U/min-mg), TEX fraction in assay [2] of 0.1 U/min-mg.

The values are drawn from US5914254.
